B1: Pro(Flex2)-6C fusion protein, produced in L. lactis (protein)
chain: EYVDEKERQGEIYPFGDEEEKDEGGESFTYEKSEVDKTDLFKFIEGGEGDDVYKVDGSKVLLDDDTISRVSKKHTARDGEYGEYGEAVEDGENVIKIIRSVLQSGALPSVGVDELDKIDLSYETTESGDTAVSEDSYDKYASNNTNKEGGGGSGGGGSGGGGSEKKVIHGCNFSSNVSSKHTFTDSLDISLVDDSAHISCNVHLSEPKYNHLVGLNCPGDIIPDCFFQVYQPESEELEPSNIVYLDSQINIGDIEYYEDAEGDDKIKLFGIVGSIPKTTSFTCICKKDKKSAYMTVTIDSA
B2: Pro(CsLNK)-6C fusion protein, produced in L. lactis (protein)
chain: EYVDEKERQGEIYPFGDEEEKDEGGESFTYEKSEVDKTDLFKFIEGGEGDDVYKVDGSKVLLDDDTISRVSKKHTARDGEYGEYGEAVEDGENVIKIIRSVLQSGALPSVGVDELDKIDLSYETTESGDTAVSEDSYDKYASNNTNKENMPNDPNRNVDENANANSAVKNNNNEEEKKVIHGCNFSSNVSSKHTFTDSLDISLVDDSAHISCNVHLSEPKYNHLVGLNCPGDIIPDCFFQVYQPESEELEPSNIVYLDSQINIGDIEYYEDAEGDDKIKLFGIVGSIPKTTSFTCICKKDKKSAYMTVTIDSA
B3: Pro(Sol)-6C fusion protein, produced in L. lactis (protein)
chain: EYVDEKERQGEIYPFGDEEEKDEGGESFTYEKSEVDKTDLFKFIEGGEGDDVYKVDGSKVLLDDDTISRVSKKHTARDGEYGEYGEAVEDGENVIKIIRSVLQSGALPSVGVDELDKIDLSYETTESGDTAVSEDSYDKYASNNTNKEKESGSVSSEQLAQFRSLDEKKVIHGCNFSSNVSSKHTFTDSLDISLVDDSAHISCNVHLSEPKYNHLVGLNCPGDIIPDCFFQVYQPESEELEPSNIVYLDSQINIGDIEYYEDAEGDDKIKLFGIVGSIPKTTSFTCICKKDKKSAYMTVTIDSA

Target: rat mAb 45.1 (against Pfs48/45 conformational epitope I)

Row | Binder | % of folding [%]
1 | B1 | 100
2 | B2 | 75
3 | B3 | 90

— patent publication US20220194996A1
